{"source": "patent US20260258115A1", "about": "(MAPP BIOPHARMACEUTICAL, published 2026)", "key": {"[1]": {"target": "RSV F on RSV subtype A virus (RSV-A2) (Respiratory Syncytial Virus, subtype A, …, UniProt P03420 26-574)", "experiment": "cell-based or functional assay"}, "[2]": {"target": "RSV prefusion F (preF), DS-Cav1 stabilized trimer, subtype A (Respiratory Syncytial Virus, subtype A, UniProt P03420 26-513)", "experiment": "BLI, IgG on anti-human IgG sensors, 100 nM antigen, apparent KD"}, "[3]": {"target": "RSV postfusion F (postF), F ΔFP trimer, subtype A (Respiratory Syncytial Virus, subtype A, UniProt P03420 26-513)", "experiment": "BLI, IgG on anti-human IgG sensors"}}}
{"binder": "ADI-41836 (antibody, V domains shown) VH: EVQLLESGAEVKKPGASVKVSCRASGYTFTSNTLHWVRQAPGQGLEWMGWINADNGNTRYSQKFQGRVTITRDTSANTAYMELSSLISEDTAVYYCAREWSGFWSGLNWFEPWGQGTLVTVSS VL: QSVLTQPPSVSGAPGQRVTISCTGSSSNIGSGNDVHWYQQFPGTAPKVLIYVNSIRPSGVSDRFSGSKSGTSASLAITGLRAEDEADYYCQSYDSSLNGVAFGGGTKLTVL", "values": [{"measurement": "Neutralization IC50 (RSV subtype A)", "setting": "[1]", "value": "> 25", "unit": "mg/L"}, {"measurement": "Kd", "setting": "[2]", "value": 0.00574, "unit": "µM"}, {"measurement": "binding result", "setting": "[3]", "value": "no binding (tested: 100 nM antigen)"}]}
{"binder": "ADI-41837 (antibody, V domains shown, also called Ab 937; Antibody Number 937) VH: QVQLVQSGAEVKKPGASVKVSCKASGYTFTSYGISWVRQAPGQGLEWMGWISAYSGDTDYAQKLQGRVTMTTDTATSTAYMELRSLRSDDTAVYYCARDAHCSSTNCYIDLGGAPVDYWGQGTLVTVSS VL: DIVLTQTPLSLSVTLGQPASISCRSSQSLVYIDGYTYLNWFQQRPGQSPRRLIYKVSNRDSGVPDRFSGSGSGTDFTLKISRVEAEDVGVYYCMQGAHWPWTFGQGTKVEIK", "values": [{"measurement": "Neutralization IC50 (RSV subtype A)", "setting": "[1]", "value": "> 25", "unit": "mg/L"}, {"measurement": "Kd", "setting": "[2]", "value": 0.00709, "unit": "µM"}, {"measurement": "binding result", "setting": "[3]", "value": "no binding (tested: 100 nM antigen)"}]}
{"binder": "ADI-41838 (antibody, V domains shown, also called Ab 938; Antibody Number 938) VH: EVQLLESGGGVVQPGRSLRLSCAASEFTFRSYAMHWVRQAPGMGLEWVAVTPYDGISKYYADSVKGRFTISRDNSKNTLYLQMNSLRPEDTAVYYCARGFPEPITSWPGYFYAMDVWGQGTTVTVSS VL: QSALTQPASVSGSPGQSITISCTGTTSDVGVYNYVSWYQQHPGKAPKLMIYDVSNRPSGVSNRFSGSKSGNTASLTISGLQAEDEADYYCSSYTNSDTPVVFGGGTKLTVL", "values": [{"measurement": "Neutralization IC50 (RSV subtype A)", "setting": "[1]", "value": "> 25", "unit": "mg/L"}, {"measurement": "Kd", "setting": "[2]", "value": 0.0321, "unit": "µM"}, {"measurement": "binding result", "setting": "[3]", "value": "no binding (tested: 100 nM antigen)"}]}
{"binder": "ADI-41839 (antibody, V domains shown, also called Ab 939; Antibody Number 939) VH: EVQLLESGGGVVQPGGSLRLSCVASGFTFSAYGMHWVRQAPGKGPEWVAMTRSDGNKIYYADSVKGRFTISRDDSKNTLYLEMNSLRPDDTAVYFCAKEVGYGGNSLHYWGQGTLVTVSS VL: SYELIQPPSVSVAPGQTAKITCGGNNIGSKSVHWYQQKPGQAPVLVVFDDSDRPSGIPERFSGSNSGNTATLTISRVEAGDEADYYCQVWDFSSDLWVFGGGTKLTVL", "values": [{"measurement": "Neutralization IC50 (RSV subtype A)", "setting": "[1]", "value": "> 25", "unit": "mg/L"}, {"measurement": "Kd", "setting": "[2]", "value": 0.00788, "unit": "µM"}, {"measurement": "binding result", "setting": "[3]", "value": "no binding (tested: 100 nM antigen)"}]}
{"binder": "ADI-43641 (antibody, V domains shown, also called Ab 946; Antibody Number 946) VH: EVQLVESGGGLVKPGGSLRLSCAASGFTFSDYYMSWIRQAPGKGLEWVSYISSSSSYTNYADSVKGRFTISRDNAKNSLYLQMNSLRAEDTAVYYCARDFSGQWLVLGYGMDVWGQGTTVTVSS VL: QSVVTQPPSVSGAPGQRVTISCTGSSSNIGAGYDVHWYQQLPGTAPKLLIYGNSNRPSGVPDRFSGSKSGTSASLAITGLQAEDEADYYCQSYDSSLSGPVFGGGTKLTVL", "values": [{"measurement": "Neutralization IC50 (RSV subtype A)", "setting": "[1]", "value": "> 25", "unit": "mg/L"}, {"measurement": "Kd", "setting": "[2]", "value": 0.0375, "unit": "µM"}, {"measurement": "binding result", "setting": "[3]", "value": "no binding (tested: 100 nM antigen)"}]}
{"binder": "ADI-43642 (antibody, V domains shown, also called Ab 947; Antibody Number 947) VH: EVQLLESGGGLVKPGGSLRLSCAASGFTFSSYSMNWVRQAPGKGLEWVSSISSSSSYIYYADSVKGRFTISRDNAKNSLYLQMNSLRAEDTAVYYCARDGADSSYYYYMDVWGKGTTVTVSS VL: QAVVTQPPSVSGAPGQRVTISCTGSSSNIGAGYDVHWYQQLPGTAPKLLIYGNSNRPSGVPDRFSGSKSGTSASLAITGLQAEDEADYYCQSYDSSLSGSVFGGGTKLTVL", "values": [{"measurement": "Neutralization IC50 (RSV subtype A)", "setting": "[1]", "value": "> 25", "unit": "mg/L"}, {"measurement": "Kd", "setting": "[2]", "value": 0.0432, "unit": "µM"}, {"measurement": "binding result", "setting": "[3]", "value": "no binding (tested: 100 nM antigen)"}]}
